T1: CSPG4 (chondroitin sulfate proteoglycan 4) peptide on HLA-C*07:02 (human)
T1 peptide: PHIIFPHGSL

T2: CSPG4 (chondroitin sulfate proteoglycan 4) peptide on HLA-C*07:02 (human)
T2 peptide: HIIFPHGSL

T3: CSPG4 (chondroitin sulfate proteoglycan 4) peptide on HLA-C*07:01 (human)
T3 peptide: HIIFPHGSL


How the values were obtained:
[1] = target: T1, CSPG4 (chondroitin sulfate proteoglycan …); experiment: cytokine release
[2] = target: T2, CSPG4 (chondroitin sulfate proteoglycan …); experiment: cytokine release
[3] = target: T3, CSPG4 (chondroitin sulfate proteoglycan …); experiment: killing

| Binder | binding result [1] | binding result [2] | binding result [3] |
| --- | --- | --- | --- |
| 2Cα-11Cβ cTCR (TCR) alpha TRAV35*02 TRAJ34*01 CDR3: CAGSYNTDKLIF beta TRBV28*01 TRBJ2-2*01 CDR3: CASSYDWGGELFF | – | – | recognises |
| 11Cα-2Cβ cTCR (TCR) alpha TRAV12-2*02 TRAJ45*01 CDR3: CAVNAAGGGADGLTF beta TRBV3-1*01 TRBJ2-1*01 CDR3: CASSQGWTRNEQFF | – | – | no recognition |

The next lines start with results.

| binding result [1] | binding result [2] | Binder | binding result [3] |
| --- | --- | --- | --- |
| no recognition | no recognition | 11C/73 TCR (TCR) alpha TRAV12-2*02 TRAJ45*01 CDR3: CAVNAAGGGADGLTF beta TRBV28*01 TRBJ2-2*01 CDR3: CASSYDWGGELFF | recognises |
| no recognition | no recognition | 2C/165 TCR (TCR) alpha TRAV35*02 TRAJ34*01 CDR3: CAGSYNTDKLIF beta TRBV3-1*01 TRBJ2-1*01 CDR3: CASSQGWTRNEQFF | recognises |

— PMC10577170 (2023)
